Reference: PMC9853002, “Tumor treatment by pHLIP-targeted antigen delivery” (Frontiers in Bioengineering and Biotechnology, 2023)

How the values were obtained:
[1] = system: murine melanoma B16F10 cells; experiment: Treatment with Gal-pHLIP in B16F10 tumor model in A3galt2 knockout mice; assay type: in vivo, mouse; settings: B16F10 tumors in A3galt2 knockout mice immunized with HSA-Gal/CFA and HSA-Gal/IFA; IP 80 μM 450 μl each day for 10 days; tumors weighed day 12; versus untreated control; statistically significant
Experimental: A3galt2 knockout female and male mice were immunized by IP injection of Galα1-3Galβ-4Glc-HSA (HSA-Gal) (Dextra Laboratories) (day 1) (HSA is human serum albumin), at a concentration of 0.2 mg/ml emulsified at a ratio 1:1 with CFA. On days 14 and 21 after the first immunization, mice were boosted by IP injection of 200 μl of HSA-Gal (0.2 mg/ml) emulsified at a ratio 1:1 with IFA.
A3galt2 knockout female and male mice immunized with HSA-Gal and CFA/IFA adjuvants received a single SQ injection of 10^6 murine melanoma B16F10 cells (ATCC CRL-6475) in the right flank on day 1. On day 2, mice were randomized into groups and tri-Gal-pHLIP was administered via IP injections each day (80 μM 450 μl per injection). […] All mice in the control and treated groups were euthanized on day 12, tumors were collected and weighed.
The Kolmogorov-Smirnov two-tailed non-parametric test was used to compare two samples at a significance level of 0.05.

[2] = system: murine mammary carcinoma 4T1 cells; experiment: Treatment with HA-pHLIP agents in 4T1 tumor mouse model; assay type: in vivo; settings: 4T1 flank tumors in BALB/c mice immunized with KLH-HA/CFA and KLH-HA/IFA; IP 40–60 µM 400 μl every second day from day 3 or 4; tumors weighed typically days 17–19; mean of control group = 100%
[3] = pH-dependent interaction of HA-pHLIP agents with POPC liposomes (tryptophan fluorescence); assay type: physicochemical; settings: 7 μM agent, 25°C; for cooperativity (n) of state II to state III transition / mid-point (pK) of state II to state III transition: pH-dependent insertion into POPC liposome bilayer, shift of fluorescence maximum vs pH, Henderson-Hasselbalch fit; for cooperativity (n) of state II to state III transition / mid-point (pK) of state II to state III transition / λmax in state III / λmax in state II: 1.4 mM POPC; for λmax in state I / λmax in state III / λmax in state II: position of tryptophan fluorescence maximum, excitation 295 nm; for λmax in state I: HA-pHLIP in solution at pH8; for λmax in state III: HA-pHLIP with POPC liposomes at pH3 (membrane-inserted); for λmax in state II: HA-pHLIP with POPC liposomes at pH8 (membrane-adsorbed)
[4] = system: murine melanoma B16F10 cells; settings: B16F10 flank tumors in BALB/c mice immunized with 2 injections of KLH-HA/AddaVax; IP 40 μM 400 μl on days 1, 2 and 3 from about 100 mm^3; tumors weighed day 7; mean of control group = 100%
anti-HA antibodies = settings: mouse, in vivo, ip

Substance | reduction of tumor growth [1] [%] | Norm. tumor weight [2] [%] | cooperativity (n) of state II to state III transition [3] | mid-point (pK) of state II to state III transition [3] | λmax in state I [3] [nm] | λmax in state III [3] [nm] | λmax in state II [3] [nm] | Norm. tumor weight [4] [%] | amount of anti-HA antibody in serum after treatment (anti-HA antibodies)
Galα(1,3)Galβ(1,4)Glc-Peg4-NHC(O)-AADDQNPWRAYLDLLFPTDTLLLDLLWA-OH [Gal-pHLIP] | 66 |  |  |  |  |  |  |  | 
AK[HA-Peg12]QNDDQNK[HA-Peg12]PWRAYLDLLFPTDTLLLDLLWA [2(HA-Peg12)-pHLIP3] |  | 61.3 | 1.9 | 4.8 | 351 | 337 | 351 |  | 
(Az)GGK[HA-Peg12]GGGK[HA-Peg12]PWRAYLELLFPTETLLLELLLA [2(HA-Peg12)-pHLIP4] |  | 55.3 | 1.3 | 5.8 | 347 | 337 | 344 |  | 
(Az)GGK[HA-Peg12]GGGKPWRAYLELLFPTETLLLELLLA [HA-Peg12-pHLIP4, v1, single HA-Peg12 on first Lys of pHLIP4] |  |  | 1.7 | 6.4 | 347 | 337 | 343 |  | 
AK[HA-Peg24]QNDDQNK[HA-Peg24]PWRAYLDLLFPTDTLLLDLLWA [2(HA-Peg24)-pHLIP3] |  | 62.9 | 0.9 | 4.6 | 351 | 337 | 350 |  | 
AK[3xHA-Peg12]QNDDQNK[3xHA-Peg12]PWRAYLDLLFPTDTLLLDLLWA [2(3xHA-Peg12)-pHLIP3] |  | 61.6 | 1.9 | 4.8 | 351 | 337 | 351 |  | 
(Az)GGKGGGK[HA-Peg12]PWRAYLELLFPTETLLLELLLA [HA-Peg12-pHLIP4, v2, single HA-Peg12 on second Lys of pHLIP4] |  |  | 2.2 | 6.8 | 348 | 337 | 343 |  | 
(Az)GGK[HA-Peg24]GGGK[HA-Peg24]PWRAYLELLFPTETLLLELLLA [2(HA-Peg24)-pHLIP4] |  |  | 0.7 | 5.8 | 347 | 336 | 347 |  | 
K(N3)[HA-Peg12]GGGGGK(N3)[HA-Peg12]PWRAYLELLFPTETLLLELLLA [2(HA-Peg12)-pHLIP5] |  |  | 0.9 | 6.2 | 347 | 340 | 346 | 56.5 | dropped significantly (close to background level)
